This is an account of results in publication PMC6327041, “Histone H3 binding to the PHD1 domain of histone demethylase KDM5A enables active site remodeling” (Nature Communications, 2019).

This assay concerns the target KDM5A PHD1 domain, S287-K347 (UniProt P29375). Put plainly: competition fluorescence polarization. Particulars: reference: unmodified H3 10mer peptide. A general note: Fluorescence polarisation rises when a labelled molecule tumbles more slowly, as on binding a larger partner.

KDM5A PHD1 domain, S287-K347, sequence (P29375 whole entry, looked up, the tested form may be a part): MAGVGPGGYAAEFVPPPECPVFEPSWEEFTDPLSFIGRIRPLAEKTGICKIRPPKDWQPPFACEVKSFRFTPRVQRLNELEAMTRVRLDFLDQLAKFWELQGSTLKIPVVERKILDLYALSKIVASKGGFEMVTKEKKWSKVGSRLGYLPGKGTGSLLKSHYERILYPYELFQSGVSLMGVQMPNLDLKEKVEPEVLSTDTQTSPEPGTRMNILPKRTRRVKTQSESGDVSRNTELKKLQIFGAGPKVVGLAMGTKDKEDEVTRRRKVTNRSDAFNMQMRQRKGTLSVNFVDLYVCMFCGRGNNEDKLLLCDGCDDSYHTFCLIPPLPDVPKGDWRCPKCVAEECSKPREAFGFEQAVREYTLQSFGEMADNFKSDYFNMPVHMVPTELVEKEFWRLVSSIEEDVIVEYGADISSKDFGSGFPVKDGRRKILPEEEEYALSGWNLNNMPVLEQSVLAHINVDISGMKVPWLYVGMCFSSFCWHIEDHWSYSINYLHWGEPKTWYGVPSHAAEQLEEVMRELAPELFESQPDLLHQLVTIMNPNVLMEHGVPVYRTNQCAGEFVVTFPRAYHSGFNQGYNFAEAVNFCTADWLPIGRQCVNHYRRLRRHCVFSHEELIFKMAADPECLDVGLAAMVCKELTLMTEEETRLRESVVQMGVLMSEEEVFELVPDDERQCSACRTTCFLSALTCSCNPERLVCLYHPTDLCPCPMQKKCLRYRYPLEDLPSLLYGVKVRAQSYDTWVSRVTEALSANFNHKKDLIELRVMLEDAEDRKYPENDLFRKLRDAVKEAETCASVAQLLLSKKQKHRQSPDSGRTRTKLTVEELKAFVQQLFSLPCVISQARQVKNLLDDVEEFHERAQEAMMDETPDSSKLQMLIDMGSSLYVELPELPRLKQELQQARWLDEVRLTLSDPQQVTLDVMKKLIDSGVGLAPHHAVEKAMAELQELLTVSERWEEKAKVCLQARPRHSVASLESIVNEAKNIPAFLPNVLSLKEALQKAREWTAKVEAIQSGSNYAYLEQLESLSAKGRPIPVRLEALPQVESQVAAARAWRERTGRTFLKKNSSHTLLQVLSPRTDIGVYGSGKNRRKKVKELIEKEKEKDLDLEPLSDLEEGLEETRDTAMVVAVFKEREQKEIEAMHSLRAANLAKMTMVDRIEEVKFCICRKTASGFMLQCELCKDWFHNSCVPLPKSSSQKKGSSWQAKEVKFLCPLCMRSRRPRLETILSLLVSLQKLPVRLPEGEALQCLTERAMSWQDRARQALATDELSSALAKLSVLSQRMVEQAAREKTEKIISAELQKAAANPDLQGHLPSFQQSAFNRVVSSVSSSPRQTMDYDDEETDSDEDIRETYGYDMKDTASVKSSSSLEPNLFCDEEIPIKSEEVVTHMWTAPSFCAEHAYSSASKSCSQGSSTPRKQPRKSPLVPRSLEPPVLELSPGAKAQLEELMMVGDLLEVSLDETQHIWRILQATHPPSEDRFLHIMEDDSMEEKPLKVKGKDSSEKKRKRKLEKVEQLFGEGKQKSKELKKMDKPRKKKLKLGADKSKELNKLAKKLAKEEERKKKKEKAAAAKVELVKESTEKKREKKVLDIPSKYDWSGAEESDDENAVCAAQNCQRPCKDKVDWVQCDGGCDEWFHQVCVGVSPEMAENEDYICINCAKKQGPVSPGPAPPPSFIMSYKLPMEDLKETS

Consider “histone H3 (N-terminal tail peptide) N-terminal tail 10mer, 1-10 (from UniProt P68431) H3T3ph 10mer peptide”, for which the “binding against the reference” value (sites T3) is “weaker”. Regarding “histone H3 (N-terminal tail peptide) N-terminal tail 10mer, 1-10 (from UniProt P68431) H3T6ph 10mer peptide”, under “sites T6”, the “binding against the reference” value is “weaker”.
